Measured values as given in patent publication US20250236878A1 (priority 2019, published 2025).
Read-outs that look alike come from different tables or passages of the source.

Assays:
[1] = tested on: Citrus trees infected with CLas; experiment: Recovery composition trunk injection: 'Valencia' orange fruit yield (Examples 3, 19); assay type: in vivo, Citrus sinesis
[2] = tested on: Citrus trees infected with Candidatus Liberibacter asiaticus; assay type: in vivo, Citrus x paradisi; conditions: […], trunk injection
[3] = tested on: Citrus trees infected with CLas; set-up: species or system Citrus sinesis; conditions: in vivo
[4] = tested on: corn hybrids Beck's 6127 BHMF and 6127 DVMF; conditions: in vivo
[5] = tested on: HLB-infected citrus trees; experiment: Citrus trials of Examples 20-24: fruit yield, size, count and drop, average over orange and grapefruit trials; assay type: in vivo, Citrus sinesis; Citrus paradisi; conditions: trunk injection (Table 64)
Description: All fruit with a diameter greater than or equal to 1.6 inches (40 mm) were hand-picked and collected for each tree. The total “Fruit Weight” (in kilograms) per individual tree was measured and recorded. Trees with total fruit weights less than or greater than 2 standard deviations (2STDEV) from the trial mean were considered to be outliers and removed from the dataset. Fruit size was assessed as the “Average Weight per Fruit” in grams (weight of 20 random fruit per tree, divided by 20) and “Average Fruit Diameter” in millimeters, as described in Example 1. The “Average Fruit Count” per tree was assessed as the total “Fruit Weight” divided by “Average Weight per Fruit”. “Fruit Drop” was assessed as for Example 1. Fruit quality was assessed as for Example 2, with the exception that one set of fruit consisted for 15 total fruit, each corresponding to a sampling of 3 fruit from 5 trees of the same experimental treatment block. Each set of 15 fruit were weighed (gram; g) and then juiced together. Average yield, % fruit drop, fruit size, and juice quality for each of the tested compositions are described in Examples 20-24.

[6] = tested on: Pseudomonas syringae pv. actinidiae (PSA-V); assay type: in vivo; conditions: at 6, 16 and 23 DAI; P<0.1
[7] = tested on: Citrus trees infected with CLas; assay type: in vivo, Citrus x paradisi; Citrus sinesis; conditions: average of 'Ruby Red' and 'Valencia'
Source text: Treatments as previously described in Example 3; β-1,3-Endoglucanase from barley SEQ ID NO: 731 (Treatment 1) and Bt.4Q7Flg22 from Bacillus thurigiensis SEQ ID NO: 226 (Treatment 5) increased fruit yield (kg/tree) as described in Table 56. Fruit quality, and juice quality of ‘Valencia’ oranges are described in Table 57.
For direct comparison of the treatment results between grapefruit (‘Ruby Red’) and orange (‘Valencia’) are referenced in Table 56 above.

[8] = 'Valencia' orange, trunk injection

B1: SEQ ID NO: 731: callose-degrading β-1,3-endoglucanase from barley (Hordeum vulgare) (protein)
chain: GVCYGVIGNNLPSRSDVVQLYRSKGINGMRIYFADGQALSALRNSGIGLILDIGNDQLANIAASTSNAASWVQNNVRPYYPAVNIKYIAAGNEVQGGATQSILPAMRNLNAALSAAGLGAIKVSTSIRFDEVANSFPPSAGVFKNAYMTDVARLLASTGAPLLANVYPYFAYRDNPGSISLNYATFQPGTTVRDQNNGLTYTSLFDAMVDAVYAALEKAGAPAVKVVVSESGWPSAGGFAASAGNARTYNQGLINHVGGGTPKKREALETYIFAMFNENQKTGDATERSFGLFNPDKSPAYNIQF
modifications: Hordeum vulgare
Which results are given for B1?
increased yield compared to the untreated control ([1]; 'Valencia' trees, trunk injection): 14.5 kg per tree; yield, average relative to control ([1]; 'Valencia', combined average of 2 sites (Table 56)): 124%; increased yield compared to the untreated control ([2]; harvested 20 months post-treatment): 4.1 kg per tree; fruit size and ^oBrixc to Citric Acid ratio (Brix:CA) relative to the untreated control [3]: increased

B2: ACC deaminase: 1-aminocyclopropane-1-carboxylate deaminase polypeptide with two substitutions relative to wild type (protein, listed as Bacillus thuringiensis)
chain: MNLAKFPRKKYTESYTPIEKLNNFSEALGGPTIYFKRDDLLGLTAGGNKTRKLEFLVADAQEKGADTLITAGGIQSNHCRLTLAAAVKEKMKCILVLEEGLEPEEKRDFNGNYFLYHLLGAENVIVVPNGADLMEEMNKVAKEVSEKGSTPYVIPVGGSNPTGAMGYVACAQEIMAQSFEQGIDFSSVVCVSGSGGMHAGLITGFSGTQSHIPVIGINVSRGKAEQEEKVAKLVDETSAHVGIPNFISRDAVTCFDEYVGPGYALPTPEMVEAVQLLAKTEGILLDPVYEGKAVAGLIDLIRKGKFNKEDNILFVHLGGSPALYANTSLFA
With B2 as the molecule, how does the “average yield benefit over the control corn plants” value [4] read?
Its value is “+7.16 flu/Ac”.

B3: Amylase from Bacillus subtilis 168: starch-degrading Amylase, trunk-injected at 92 U per tree (protein, UniProt P00691 42-659, looked up)
Alpha-amylase: LTAPSIKSGTILHAWNWSFNTLKHNMKDIHDAGYTAIQTSPINQVKEGNQGDKSMSNWYWLYQPTSYQIGNRYLGTEQEFKEMCAAAEEYGIKVIVDAVINHTTSDYAAISNEVKSIPNWTHGNTQIKNWSDRWDVTQNSLLGLYDWNTQNTQVQSYLKRFLDRALNDGADGFRFDAAKHIELPDDGSYGSQFWPNITNTSAEFQYGEILQDSASRDAAYANYMDVTASNYGHSIRSALKNRNLGVSNISHYASDVSADKLVTWVESHDTYANDDEESTWMSDDDIRLGWAVIASRSGSTPLFFSRPEGGGNGVRFPGKSQIGDRGSALFEDQAITAVNRFHNVMAGQPEELSNPNGNNQIFMNQRGSHGVVLANAGSSSVSINTATKLPDGRYDNKAGAGSFQVNDGKLTGTINARSVAVLYPDDIAKAPHVFLENYKTGVTHSFNDQLTITLRADANTTKAVYQINNGPETAFKDGDQFTIGKGDPFGKTYTIMLKGTNSDGVTRTEKYSFVKRDPASAKTIGYQNPNHWSQVNAYIYKHDGSRVIELTGSWPGKPMTKNADGIYTLTLPADTDTTNAKVIFNNGSAQVPGQNQPGFDYVLNGLYNDSGLSGSLPH
How did the “average increase in fruit weight relative to control” value [5] turn out when B3 was run?
Its value is 5%.

B4: Serine Protease 2: serine protease 2 cloned from Bacillus subtilis, four substitutions relative to SEQ ID NO: 722 (protein, listed as Bacillus subtilis)
chain: SSKTSADLEKAEVFGDIDMTTSKKTTVIVELKEKSLAEAKEAGESQSKSKLKTARTQAKNKAIKAVKNGKVNREYEQVFSGFSMKLPANEIPKLLAVKDVKAVYPNVTYKTDNMKDKDVTISEDAVSPQMDDSAPYIGANDAWDLGYTGKGIKVAIIDTGVEYNHPDLKKNFGQYKGYDFVDNDYDPKETPTGDPRGEATDHGTHVAGTVAANGTIKGVAPDATLLAYRVLGPGGSGTTENVIAGVERAVQDGADVMNLSLGNSLNNPDWATSTALDWAMSEGVVAVTSNGNSGPNGWTVGSPGTSREAISVGATQLPLDEYAVTFGSYSSAKVMGYNKEDDVKALNNKEVELVEAGIGEAKDFEGKDLTGKVAVVKRGSIAFVDKADNAKKAGAIGMVVYNNLSGEIEANVPGMSVPTIKLSLEDGEKLVSALKAGETKTTFKLTVSKALGEQVADFSSRGPVMDTWMIKPDISAPGVNIVSTIPTHDPDHPYGYGSKQGTSMASPHIAGAVAVIKQAKPKWSVEQIKAAIMNTAVTLKDSDGEVYPHNAQGAGSARIMNAIKADSLVSPGSCSYGTFLKENGNETKNETFTIENQSSIRKSYTLEYSFNGSGISTSGTSRVVIPAHQTGKATARVKVNTKKTKAGTYEGTVIVREGGKTVAKVPTLLIVKEPDYPRVTSVSVSEGSVQGTYQIETYLPAGAEELAFLVYDSNLDFAGQAGIYKNQDKGYQYFDWDGTINGGTKLPAGEYYLLAYAANKGKSSQVLTEEPFTVE
Which “PSA-V leaf spot symptoms in comparison to the untreated control” value [6] does the source give for B4 here?
The value was “significantly reduced”.

B5: β-1,3-Endoglucanase from Barley (SEQ ID NO: 731) (protein)
chain: B1 chain
modifications: Hordeum vulgare
Which “Average Yield (kg per tree)” value ([2]; harvested 20 months post-treatment, Bt.4Q7Flg22 0.33 mg/tree, endoglucanase 2600 U/tree, mixture 660 U + 660 U + 0.27 mg/tree) does the source give for B5 here?
Its value is 38.7 kg per tree.

And the “Average Yield (kg per tree) Relative to Untreated” value ([2]; untreated = 34.6)?
The value was “(112%)”.

B6: B-1,3-Endoglucanase from Barley (SEQ ID NO: 731) (protein)
chain: B1 chain
modifications: Hordeum vulgare
What does the source list for B6?
Average Yield (Relative to Untreated) [1, 8]: (136%); Average Yield (kg per tree) [1, 8]: 54.8 kg per tree; Average Yield (Relative to Untreated), Average of 2 sites [7]: (124%); Average Yield (Relative to Untreated) [2]: (112%); Average Yield (kg per tree) [2]: 38.7 kg per tree; Average Fruit Diameter (Relative to Untreated) [3]: (104%); Average Fruit Diameter (mm) [3]: 62.76 mm; Brix:CA Ratio [3]: 12.01; Brix:CA Ratio (Relative to Untreated) [3]: (+0.76)
